Measurements as given in the supplement of paper PMC12764529.
± gives the half width of the 95% confidence interval.

Assay: folding stability dG unfold (combined trypsin and chymotrypsin); higher = more stable
Outline: (§1)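 Designed mini-proteins with no cysteine and under 80 residues were kept only if AlphaFold2 dimer inter-PAE was above 15. In a PA-tagged cDNA display construct, they were digested with trypsin and chymotrypsin and then sequenced. K50 was inferred by Bayesian fitting of counts, and unfolding free energy was derived per protease or combined against a sequence-predicted unfolded-state K50 and a shared folded-state K50.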

Row | Sequence | folding stability dG unfold
1 | SAGGSAGGSAGGMTTTTVSRSPDGTITTTTTTYVPTPDGSVVPVTTTTTTTPIDPAALSSAGGSAGGSAGGS [r10_991_JUSTAS] | 1.42 ± 0.036 kcal/mol
2 | SAGGSAALELVEEVSEFYDPNTGKKTTLVVARKDGKPILILIPPSGATVYDASNGNKLFEIPPELLSAGGSA [r15_85_JUSTAS] | 0.951 ± 0.065 kcal/mol
3 | SAGGSAGGSVPLELELTFKLENGSFIVVKAKIEFNPETPEFKVEVLSVEIFLEPEGKIVSDEDFSAGGSAGG [r6_864_TrMRF] | 2.44 ± 0.29 kcal/mol
4 | SAGGSAGGGMKITEITIEKDPENPDTYTITIKVDGKTYTITVKKGETLYIFDKDGKLVLEIKVDSAGGSAGG [r6_920_TrROS_Hall] | 5.1 ± 0.25 kcal/mol
5 | SAGGRKAKVTVTLPDGTVVELELEFKTEEEFEKAVKEKLEELFGKSIEEVPFVEKKVTVYDPEKGSKSESAG [r5_482_JUSTAS] | 2.04 ± 0.31 kcal/mol
6 | SAGGSAGGSAGMKIKFPNGKVVEIHMDEDSGNIEIEFPDGKKKEINIPGMSIDDILDYLKSAGGSAGGSAGG [r11_729_TrROS] | 1.59 ± 0.045 kcal/mol
7 | SAGGSAMLTLLYRVPPGDPLAHAREIAEALEERFGAKVRILDVKVERDPVTREVYIPVVVELELPESAGGSA [r15_70_TrMRF] | 1.14 ± 0.17 kcal/mol
8 | SAGGSAGGSAVLDPSSPRPFEIVEVRRVRFEATVSFAGRPRKLEIEVDLLLVRDPSNGRIGSAGGSAGGSAG [r3_391_TrMRF] | 3.14 ± 0.15 kcal/mol
9 | SAGGSAGGSGMMFELAFREIKYSPNDSVTIKAELPDGSSITIPTKKGEIKFKLPENGYVKVLGSAGGSAGGS [r12_746_JUSTAS] | -0.262 ± 0.2 kcal/mol
10 | SAGGSAGGSAGGMPPATTVVEKPETSLTLEKTPTTVTIHDKATGKTSTVPAAEVDPALLSAGGSAGGSAGGS [r10_512_JUSTAS] | 0.138 ± 0.1 kcal/mol
11 | SAGGSAGGSAGGSSKNRPLVIIDYPFYTSNPDYIVRATFINYLDENNNITEVKVEVLKASAGGSAGGSAGGS [r4_75_TrMRF] | 2.59 ± 0.27 kcal/mol
12 | SAGGSAGGSMETTREELPPELTVERVTEREPGEGRITVRVKVYRPDGTLLSEEVVERDPEDLESAGGSAGGS [r12_240_JUSTAS] | 0.295 ± 0.097 kcal/mol
13 | SAAAAVAAAVAATLEALLPPGYRITAVTAEVAPDGTVTIPVTVEGPDGVPTLVVVTVDLATGEITVTVFGSA [r9_219_TrMRF] | 4.22 ± 0.22 kcal/mol
14 | SMTPEEVKALAEELAERLKEEGYEVEVKVTVEEVDGEKYVTIEIEVRRPDGSTETFRLVIREDGSIEIYPSA [r9_1027_TrROS_Hall] | 4.37 ± 0.17 kcal/mol
15 | SAGMTTTVTLKAPDGTTATVTIPPDGNAVMTIETPEGTSTRTVPVPADVSIEEILKEYPNYTIVSREAASAG [r5_259_JUSTAS] | 1.82 ± 0.041 kcal/mol
16 | SAGGSAGGSAKYITIFFWGSVEEALKSIPIPPGFKVEIDNIHRNPDGWMWVMITIEIPPNMKSAGGSAGGSA [r18_510_TrROS] | 4.28 ± 0.22 kcal/mol
17 | SAKVITIKLKIKVKTEEELEKAKELADELAKKLAEEGKKVKVEVVKIEVEENENGEKTVTIEIKIYLEPSAG [r14_48_TrROS_Hall] | 3.6 ± 0.35 kcal/mol
18 | SLGPNEDAILEEEAIIDIDPEAFRKAFGFDVPEDTKVLIITRRRVPANGDIETDPEIYIYDPKTKKFYPISA [r9_349_TrMRF] | 2.29 ± 0.16 kcal/mol
19 | SAMTVEIEFPPELEVEELVEKLKEAFPGEEIEVEAERDPVEPRLRIRVTVDDPELAEEVEKKLRELVEESAG [r14_443_TrMRF] | 3 ± 0.12 kcal/mol
20 | SAGGSAGGSAGGAAPDDVKIEIEWDVGVMTMEMMNPGGQPHKMYMIMVSLKIEIEPNADSAGGSAGGSAGGS [r10_1212_TrROS] | 4.95 ± 0.18 kcal/mol
21 | SAGGSAGGSAGWGWISVSITFEMEHYDEDGKPKHEHPMPMTIQIPVVRVDPKNGKLEPMPSAGGSAGGSAGG [r17_413_TrROS] | 2.24 ± 0.2 kcal/mol

Assay: folding stability dG unfold from trypsin proteolysis; higher = more stable
Outline: as §1

Row | Sequence | folding stability dG unfold
22 | SAGGSAEEIARKLAEELAEEGEEVEVEVVEVEVEKVDGKEKVIRIRVKVKLPNGEELELELEIKLDELSAGG [r13_215_TrROS_Hall] | 2.38 ± 0.16 kcal/mol
23 | SAGGSMPETVKVRVRNADGSLLTLEITRDADGELTVTLEVDGKTVELSLEELEKLPPGVEVVEVEPSAGGSA [r2_431_TrROS_Hall] | 1.9 ± 0.087 kcal/mol
24 | SAGGGPPPVEVTTSTDPSTGKVTTTVTAGPAGTRFTSSSPNGSSTTTTTVTYVGDTWEVSTSSTSSSSAGGS [r16_631_JUSTAS] | 1.21 ± 0.061 kcal/mol
25 | SAGGSAGGSAGGIKITPDIRELLRQQGKPFSEEEIQGIAKYIAKHFKEKGFEDVTIRIPWSAGGSAGGSAGG [r7_512_TrROS] | 0.471 ± 0.17 kcal/mol
26 | SAGWKPITAEEIKKLVKEFAEKAPPGDKRPVTVEIRLPLPNGRHWVFTIKVERTDNNVKVKIEVQPYNSAGG [r19_220_TrROS] | 2.49 ± 0.076 kcal/mol
27 | SAGGPVFLGFEEALEFIEKAFENGEDVVVVARLPDGGLVVLEASGPDLDLRVVAVIPLPPPEEDPEKYSAGG [r13_839_TrMRF] | 1.5 ± 0.033 kcal/mol
28 | SAGGSAGGSMTIVIKVKSKEDALEAAKALLAELGIEEGAEVKKIEVEEVDPENKEYYVRIEVKSAGGSAGGS [r12_999_TrROS_Hall] | 1.72 ± 0.13 kcal/mol
29 | SAKPIPLKNVTINMYKDEKGNYYFKVTLNDKFIGEFEFETTEEALEGAIELAKEIEKIYGPNNIKIKNESAG [r14_791_TrMRF] | 2.33 ± 0.2 kcal/mol
30 | SAGGSAGGSAGGVVVVEVEIRLSDEEIEALKDLGISAEDLTLRVTVVVELPPPPPAEEESAGGSAGGSAGGS [r10_1149_TrROS_Hall] | 2.23 ± 0.2 kcal/mol
31 | SAGGSAGGSAGSMIEEAVEAAKASGDPDVTVDLETPEGRVTVTVTVDPATGTVTVTTSPESAGGSAGGSAGG [r17_475_JUSTAS] | 1.21 ± 0.033 kcal/mol
32 | SAGGSAGGSAGMRKVVTGKEAVVKLTGIPPEVLEAMSEEELRALVAPLVEAGKVDEIELKSAGGSAGGSAGG [r11_80_JUSTAS] | -0.0624 ± 0.17 kcal/mol
33 | SAGGSMKITKIEIEKLPNGEYKITITKDENGNITVTVTNKNGKKKTITLKVKPEDVEEVLKELLKKSAGGSA [r2_298_TrROS_Hall] | 1.6 ± 0.051 kcal/mol
34 | SAGGSAGGSAPMEIWVLIDSPEKAKDLAKEIAHELQQSGIKIKVEVEQPPNGYYLVKIRFDSAGGSAGGSAG [r3_211_TrROS] | 1.89 ± 0.14 kcal/mol
35 | SNPENIDKITFTFRWPDGNPMEIEIDPDGTVEYEYPNGWEIEITIDPDDGKLTIEMTFPNGRPQEQKIPISA [r9_99_TrROS] | 1.86 ± 0.12 kcal/mol
36 | SAGGKKIKITVKELKKKLEEEGYEIEEIEIYNKKTGKKIKTIKEGDVIELPENVKNVVIKVKIKKKKSAGGS [r8_243_TrROS_Hall] | 2.16 ± 0.19 kcal/mol
37 | SAGGSAGGSDPAKKPVYLLATVEVEIGEVVDPNTGEPSHEHRVTVRFLITIDPDGNISISSLTSAGGSAGGS [r12_438_TrMRF] | 2.9 ± 0.2 kcal/mol
38 | SAGGSAGPEITPPVVVVTFTFKFPDGKTIEIPTTDLEEGEKEIEKIKKPLLEKKNIELVKVTTKPVSAGGSA [r15_140_JUSTAS] | -0.607 ± 0.37 kcal/mol
39 | SAGGSAGGSAGGMKTITIKVPSSVSFEEAKKKAEALFPKSIPVKVEYDPKTGTFTVTVESAGGSAGGSAGGS [r10_163_JUSTAS] | 1.77 ± 0.035 kcal/mol
40 | SAGGMTVTVLEVTEEEVIIDDKKEKIITITIKLPDGTEITVTLSTSEIEAKGLTKEEAVEYIAKKLLSAGGS [r16_625_JUSTAS] | 3.55 ± 0.085 kcal/mol
41 | SAMKAEVYILVYDKNGKLIAKIPIKAEEVLEDPEKFLETVKTVVEEFSGIGVKLKIYFPSTGKEVEIEASAG [r14_972_TrMRF] | 4.2 ± 0.65 kcal/mol
42 | SAGMTFTTVTVERPLGSPEGKPVSLEEVEEYAKKVAEELEPNGFPVENITIELLPDGTAVITMTIKKPLSAG [r14_470_JUSTAS] | 2.03 ± 0.042 kcal/mol

Row | Sequence | folding stability dG unfold
43 | SAGGSAGGSAGGMTTTTVSRSPDGTITTTTTTYVPTPDGSVVPVTTTTTTTPIDPAALSSAGGSAGGSAGGS [r10_991_JUSTAS] | 1.45 ± 0.046 kcal/mol
44 | SAGGSAALELVEEVSEFYDPNTGKKTTLVVARKDGKPILILIPPSGATVYDASNGNKLFEIPPELLSAGGSA [r15_85_JUSTAS] | 0.61 ± 0.03 kcal/mol
45 | SAGGSAGGSVPLELELTFKLENGSFIVVKAKIEFNPETPEFKVEVLSVEIFLEPEGKIVSDEDFSAGGSAGG [r6_864_TrMRF] | 1.43 ± 0.087 kcal/mol
46 | SAGGSAGGGMKITEITIEKDPENPDTYTITIKVDGKTYTITVKKGETLYIFDKDGKLVLEIKVDSAGGSAGG [r6_920_TrROS_Hall] | 4 ± 0.41 kcal/mol
47 | SAGGRKAKVTVTLPDGTVVELELEFKTEEEFEKAVKEKLEELFGKSIEEVPFVEKKVTVYDPEKGSKSESAG [r5_482_JUSTAS] | 1.13 ± 0.13 kcal/mol
48 | SAGGSAGGSAGMKIKFPNGKVVEIHMDEDSGNIEIEFPDGKKKEINIPGMSIDDILDYLKSAGGSAGGSAGG [r11_729_TrROS] | 1.56 ± 0.036 kcal/mol
49 | SAGGSAMLTLLYRVPPGDPLAHAREIAEALEERFGAKVRILDVKVERDPVTREVYIPVVVELELPESAGGSA [r15_70_TrMRF] | 0.856 ± 0.074 kcal/mol
50 | SAGGSAGGSAVLDPSSPRPFEIVEVRRVRFEATVSFAGRPRKLEIEVDLLLVRDPSNGRIGSAGGSAGGSAG [r3_391_TrMRF] | 2.19 ± 0.04 kcal/mol
51 | SAGGSAGGSGMMFELAFREIKYSPNDSVTIKAELPDGSSITIPTKKGEIKFKLPENGYVKVLGSAGGSAGGS [r12_746_JUSTAS] | -0.281 ± 0.34 kcal/mol
52 | SAGGSAGGSAGGMPPATTVVEKPETSLTLEKTPTTVTIHDKATGKTSTVPAAEVDPALLSAGGSAGGSAGGS [r10_512_JUSTAS] | -0.373 ± 0.11 kcal/mol
53 | SAGGSAGGSAGGSSKNRPLVIIDYPFYTSNPDYIVRATFINYLDENNNITEVKVEVLKASAGGSAGGSAGGS [r4_75_TrMRF] | 2.3 ± 0.22 kcal/mol
54 | SAGGSAGGSMETTREELPPELTVERVTEREPGEGRITVRVKVYRPDGTLLSEEVVERDPEDLESAGGSAGGS [r12_240_JUSTAS] | 0.319 ± 0.053 kcal/mol
55 | SAAAAVAAAVAATLEALLPPGYRITAVTAEVAPDGTVTIPVTVEGPDGVPTLVVVTVDLATGEITVTVFGSA [r9_219_TrMRF] | 3.17 ± 0.16 kcal/mol
56 | SMTPEEVKALAEELAERLKEEGYEVEVKVTVEEVDGEKYVTIEIEVRRPDGSTETFRLVIREDGSIEIYPSA [r9_1027_TrROS_Hall] | 3.49 ± 0.19 kcal/mol
57 | SAGMTTTVTLKAPDGTTATVTIPPDGNAVMTIETPEGTSTRTVPVPADVSIEEILKEYPNYTIVSREAASAG [r5_259_JUSTAS] | 1.26 ± 0.037 kcal/mol
58 | SAGGSAGGSAKYITIFFWGSVEEALKSIPIPPGFKVEIDNIHRNPDGWMWVMITIEIPPNMKSAGGSAGGSA [r18_510_TrROS] | 2.68 ± 0.088 kcal/mol
59 | SAKVITIKLKIKVKTEEELEKAKELADELAKKLAEEGKKVKVEVVKIEVEENENGEKTVTIEIKIYLEPSAG [r14_48_TrROS_Hall] | 3.36 ± 0.22 kcal/mol
60 | SLGPNEDAILEEEAIIDIDPEAFRKAFGFDVPEDTKVLIITRRRVPANGDIETDPEIYIYDPKTKKFYPISA [r9_349_TrMRF] | 2.05 ± 0.046 kcal/mol
61 | SAMTVEIEFPPELEVEELVEKLKEAFPGEEIEVEAERDPVEPRLRIRVTVDDPELAEEVEKKLRELVEESAG [r14_443_TrMRF] | 3.34 ± 0.15 kcal/mol
62 | SAGGSAGGSAGGAAPDDVKIEIEWDVGVMTMEMMNPGGQPHKMYMIMVSLKIEIEPNADSAGGSAGGSAGGS [r10_1212_TrROS] | 3.74 ± 0.25 kcal/mol
63 | SAGGSAGGSAGWGWISVSITFEMEHYDEDGKPKHEHPMPMTIQIPVVRVDPKNGKLEPMPSAGGSAGGSAGG [r17_413_TrROS] | 1.83 ± 0.095 kcal/mol
